From patent US6312887

Molecular target: T1, STAT-1alpha wild type (transfected in U3A cells) (Homo sapiens) (UniProt P42224)
T1 sequence: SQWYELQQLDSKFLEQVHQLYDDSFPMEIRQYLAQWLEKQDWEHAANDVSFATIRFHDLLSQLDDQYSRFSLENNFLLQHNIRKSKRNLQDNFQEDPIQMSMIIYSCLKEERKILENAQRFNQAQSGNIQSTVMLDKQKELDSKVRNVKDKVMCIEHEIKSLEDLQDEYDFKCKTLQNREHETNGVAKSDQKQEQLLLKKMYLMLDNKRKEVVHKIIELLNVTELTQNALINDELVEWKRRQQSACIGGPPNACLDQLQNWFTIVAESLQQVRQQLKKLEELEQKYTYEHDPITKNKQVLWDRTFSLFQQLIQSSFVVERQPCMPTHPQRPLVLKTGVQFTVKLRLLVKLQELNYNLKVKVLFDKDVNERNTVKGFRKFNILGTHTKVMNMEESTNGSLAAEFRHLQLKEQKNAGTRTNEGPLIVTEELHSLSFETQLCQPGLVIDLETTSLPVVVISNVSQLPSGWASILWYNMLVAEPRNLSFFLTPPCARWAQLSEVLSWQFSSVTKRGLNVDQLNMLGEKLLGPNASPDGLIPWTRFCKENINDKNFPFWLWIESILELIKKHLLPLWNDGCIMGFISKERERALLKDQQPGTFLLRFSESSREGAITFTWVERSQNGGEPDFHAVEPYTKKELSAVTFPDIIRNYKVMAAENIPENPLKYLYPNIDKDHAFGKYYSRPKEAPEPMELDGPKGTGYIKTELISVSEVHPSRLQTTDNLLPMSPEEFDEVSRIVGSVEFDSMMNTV
Assay: cell_activity
Conditions: luciferase reporter in U3A cells, IFN-gamma 5 ng/ml 10 h

GATCAGTTCCCGTCAATCNATGATCCAGTTCCCGTCAATGATCCCCGGGATC (double strand) [tandem weak c-fos STAT-1 sites reporter enhancer]
activity (fold induction): 2
